This note sets out measurements from patent publication US20050260697.

Data set [1] has as its target human cardiac Troponin-T2, P45379.
The target of data set [2] is human cardiac Troponin-I3, P19429.
Data set [3] has as its target human muscle Troponin-T1, P13805.
Data set [4] deals with human muscle Troponin-T3, P45378.
Sequence of human muscle Troponin-T3, P45378 (P45378 2-269): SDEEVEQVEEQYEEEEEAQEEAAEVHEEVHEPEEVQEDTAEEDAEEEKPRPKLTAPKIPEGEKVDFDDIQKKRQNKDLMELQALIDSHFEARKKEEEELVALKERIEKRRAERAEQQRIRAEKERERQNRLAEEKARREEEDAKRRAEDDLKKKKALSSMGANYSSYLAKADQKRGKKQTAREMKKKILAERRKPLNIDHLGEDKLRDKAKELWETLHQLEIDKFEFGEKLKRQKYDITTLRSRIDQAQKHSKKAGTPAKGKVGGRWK

Sequence of human muscle Troponin-T1, P13805 (P13805 whole entry): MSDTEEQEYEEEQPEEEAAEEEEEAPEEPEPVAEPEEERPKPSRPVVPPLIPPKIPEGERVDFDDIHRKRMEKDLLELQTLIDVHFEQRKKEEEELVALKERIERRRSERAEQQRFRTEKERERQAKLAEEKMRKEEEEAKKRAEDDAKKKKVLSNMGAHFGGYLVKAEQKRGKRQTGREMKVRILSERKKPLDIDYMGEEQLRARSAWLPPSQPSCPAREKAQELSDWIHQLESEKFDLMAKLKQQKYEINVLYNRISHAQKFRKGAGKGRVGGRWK
Sequence of human cardiac Troponin-I3, P19429 (P19429 whole entry, looked up): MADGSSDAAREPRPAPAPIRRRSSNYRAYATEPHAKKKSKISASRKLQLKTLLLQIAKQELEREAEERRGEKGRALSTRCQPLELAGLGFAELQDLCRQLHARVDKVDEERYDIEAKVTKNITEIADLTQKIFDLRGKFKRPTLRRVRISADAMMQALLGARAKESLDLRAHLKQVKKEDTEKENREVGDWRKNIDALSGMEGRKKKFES

B1: caspase-3 (protein)
chain: SGISLDNSYKMDYPEMGLCIIINNKNFHKSTGMTSRSGTDVDAANLRETFRNLKYEVRNKNDLTREEIVELMRDVSKEDHSKRSSFVCVLLSHGEEGIIFGTNGPVDLKKITNFFRGDRCRSLTGKPKLFIIQACRGTELDCGIETDSGVDDDMACHKIPVEADFLYAYSTAPGYYSWRNSKDGSWFIQSLCAMLKQYADKLEFMHILTRVNRKVATEFESFSFDATFHAKKQIPCIVSMLTKELYFYH
Consider B1, for which, in data set [1], the “in vitro protease digestion, breakdown products on gels” value is “human cardiac Troponin-T2 and Troponin-13 were cleaved by calpain-2 and caspase-3 proteases, producing unique breakdown products”; the “stated: cleaves (breakdown bands on a gel)” value was “the Caspase-3 lane shows a band d at the 25 kDa mark that is absent from the untreated lane and the Calpain-2 lanes; the Troponin-T2 band at 30 kDa is largely kept; no bands a, b, c”. Also, the “in vitro protease digestion, breakdown products on gels” value in data set [2] was “human cardiac Troponin-T2 and Troponin-13 were cleaved by calpain-2 and caspase-3 proteases, producing unique breakdown products”.

B2: calpain-1 (protein)
chain: SEEIITPVYCTGVSAQVQKQRARELGLGRHENAIKYLGQDYEQLRVRCLQSGTLFRDEAFPPVPQSLGYKDLGPNSSKTYGIKWKRPTELLSNPQFIVDGATRTDICQGALGDCWLLAAIASLTLNDTLLHRVVPHGQSFQNGYAGIFHFQLWQFGEWVDVVVDDLLPIKDGKLVFVHSAEGNEFWSALLEKAYAKVNGSYEALSGGSTSEGFEDFTGGVTEWYELRKAPSDLYQIILKALERGSLLGCSIDISSVLDMEAITFKKLVKGHAYSVTGAKQVNYRGQVVSLIRMRNPWGEVEWTGAWSDSSSEWNNVDPYERDQLRVKMEDGEFWMSFRDFMREFTRLEICNLTPDALKSRTIRKWNTTLYEGTWRRGSTAGGCRNYPATFWVNPQFKIRLDETDDPDDYGDRESGCSFVLALMQKHRRRERRFGRDMETIGFAVYEVPPELVGQPAVHLKRDFFLANASRARSEQFINLREVSTRFRLPPGEYVVVPSTFEPNKEGDFVLRFFSEKSAGTVELDDQIQANLPDEQVLSEEEIDENFKALFRQLAGEDMEISVKELRTILNRIISKHKDLRTKGFSLESCRSMVNLMDRDGNGKLGLVEFNILWNRIRNYLSIFRKFDLDKSGSMSAYEMRMAIESAGFKLNKKLYELIITRYSEPDLAVDFDNFVCCLVRLETMFRFFKTLDTDLDGVVTFDLFKWLQLTMFA
For B2, in data set [3], the “in vitro protease digestion, breakdown products on Coomassie stained membrane and Western blot” value is “human muscle Troponin-T1/3 was digested by calpain-1 protease, producing unique breakdown products”; the “stated: cleaves (breakdown bands on a stained membrane and a blot)” value is “Coomassie panel: the band at 35 kDa in the TnT lane weakens in the +Calpain-I lanes with time and a band near the 15 kDa mark appears; band B of the blot is mapped to TnT1 (new N-terminus AEQKRGKRQTGR)”. Besides, in data set [4], the “in vitro protease digestion, breakdown products on Coomassie stained membrane and Western blot” value is listed as “human muscle Troponin-T1/3 was digested by calpain-1 protease, producing unique breakdown products”; the “stated: cleaves (breakdown bands on a stained membrane and a blot)” value is “Coomassie panel: the band at 35 kDa in the TnT lane weakens in the +Calpain-I lanes with time; band A of the blot, just below the intact band, is mapped to TnT3 (new N-terminus APKIPEGEK)”.
